From the supplement of paper PMC10126150
± gives the standard deviation of the averaged measurements.

What follows are sequences tested on ATP (assay: switch fluorescence ratio, 500 uM ATP over buffer (Cy3 cluster intensity, sum of 5 cycles each) (fold (ratio)); higher = stronger signal-on switching upon ATP binding; sequences stand for … in TCGTCGGCAGCGTCAGATGTGTATAAGAGACAGTTTTTTTTTTTTTTTTTTTTTTTTT…TC). Conditions: aptamer strand: ATP DNA aptamer (quencher-CACCTGGGGGAGTATTGCGGAGGAAGG + anchor), 100 nM annealed; ATP concentration: 500 uM.
Procedure, shortened: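 Switching-strand clusters labelled with Cy3 on a modified Illumina MiSeq flow-cell were annealed to 100 nM quencher-labelled ATP aptamer, imaged in selection buffer, and re-imaged after 15 min with 500 uM ATP at 22 °C. This was done over five cycles with NaOH stripping and re-annealing in between. The fluorescence ratio is summed target-cycle over summed buffer-cycle Cy3 intensity per cluster, averaged per switch-domain sequence, excluding clusters outside 100-1000 RFU.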
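Note: ATP exposure 15 min at 22 °C before imaging.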

Sequence | switch fluorescence ratio
TGAAATAGGA | 1.01 ± 0.039
GCTGCTTGCG | 1 ± 0.014
GGGGGTGAAT | 1 ± 0.037
ATTAAATCAG | 1.013 ± 0.0058
AGCATAATAT | 1.05 ± 0.012
TTAGTCGGGA | 1.023 ± 0.0028
CGGGTGGGTA | 1 ± 0.023
GGTTTGAAAT | 1.04 ± 0.051
TACTACAGGG | 1.11 ± 0.013
CGGTTAATTC | 1.012 ± 0.0028
ACAGAATCGG | 1.03 ± 0.018
CAGTGCATC | 0.972 ± 0.053
AAATTCACTT | 0.997 ± 0.021
GCGTTATAAG | 1.01 ± 0.049
AAATGGGAGA | 0.992 ± 0.026
GGTTAATTGT | 0.993 ± 0.033
TAGGAAGGTT | 0.9879 ± 0.0036
TTCAAGCTTT | 1.01 ± 0.022
CAGGACTCCG | 0.98 ± 0.046
AGTGTTAGAC | 1.012 ± 0.0048
GAGATGGGGA | 0.991 ± 0.022
GGTTTAATTC | 1.01 ± 0.012
ACACTCACCC | 1.57 ± 0.36

Sequence | switch fluorescence ratio
TTCACGGGAT | 1.06 ± 0.035
TAGGAATACG | 1.24 ± 0.036
ACATCGACTG | 1.02 ± 0.048
AGTGGTGTTG | 0.9577 ± 0.0092
TGGGGTGCAG | 1.03 ± 0.017
GGTTTGGTTA | 1 ± 0.027
CATTGGAGCA | 1.027 ± 0.0086
GATTTTAGAG | 0.9809 ± 0.003
GGATGAGTAT | 1.02 ± 0.058
AGTTTGGTGG | 0.942 ± 0.067
ATCCGGTTAC | 5.17 ± 0.68
CGGACCATTT | 1.04 ± 0.024
GAGAGTCTAG | 0.989 ± 0.015
AATTTAAAGC | 1.03 ± 0.07
GTTGGAAGGT | 1.02 ± 0.012
GGCAGCCGGT | 1 ± 0.036
GATATTATGA | 1.01 ± 0.01
TAGCGTCTGT | 0.983 ± 0.02
TGGGTCCTTG | 0.9894 ± 0.0014
ATGTAGTCGC | 1.004 ± 0.0012
AAGCTGGCGG | 0.9911 ± 0.0096
AAGATATAT | 0.984 ± 0.035
ATTAATTTTG | 0.992 ± 0.023

Sequence | switch fluorescence ratio
AGTTTTGTGT | 0.972 ± 0.0098
TTCGAAAAAG | 0.9961 ± 0.008
ATAGTTTGAC | 1.008 ± 0.0015
GACCAAAGGG | 1.03 ± 0.058
GCACGGATGT | 1.029 ± 0.0097
GAGAGTCCTT | 0.997 ± 0.015
AAAGGTTGCT | 1.007 ± 0.01
GGGTTAGATG | 0.9893 ± 0.0069
ATCCGTGATA | 1.77 ± 0.021
CGATACTTGA | 0.99 ± 0.038
GGGTTAAAGA | 1 ± 0.017
TAGATTCGCT | 0.993 ± 0.039
ATTCTCCTTG | 1 ± 0.017
TTTCGATATT | 0.989 ± 0.019
TTAGAGCATT | 1 ± 0.026
GTGTTTTGTT | 0.986 ± 0.034
TATGGAGCGT | 1.04 ± 0.018
ACAGTCTGCG | 0.962 ± 0.037
ATAGGGTATA | 0.981 ± 0.055
ACGGGGCGTT | 1.01 ± 0.012
GCTCTATGAC | 1.08 ± 0.044
GACGTTTCAG | 0.95 ± 0.02
ACATGAACCT | 2.14 ± 0.077

Sequence | switch fluorescence ratio
GGGAAAGGTG | 1.54 ± 0.11
TAGGATGTA | 0.9643 ± 0.0014
TCCTGATTGC | 1.03 ± 0.038
GTAGGGATTA | 0.9779 ± 0.0064
CATGCTGCGG | 0.999 ± 0.026
GAGTTTTTTT | 0.987 ± 0.033
GTTCAGTAGG | 0.9677 ± 0.0077
ATATAGGCTA | 0.995 ± 0.011
TCGTTCTTTT | 0.966 ± 0.019
TATAAATTTT | 0.992 ± 0.036
TTGGGAATCC | 1.03 ± 0.12
TCTGGTGAAA | 1.02 ± 0.054
AAAAGTAGAA | 0.992 ± 0.023
GTGTGAAGGC | 1.03 ± 0.02
TCGGCCGCTG | 1.05 ± 0.064
CCATGTCTGT | 0.963 ± 0.015
GGGCTTTGAG | 0.979 ± 0.038
CATGGGGAAG | 1.02 ± 0.011
CTTATTTGGT | 0.992 ± 0.035
GGGGGAGGCT | 0.987 ± 0.034
ATGTTAAATC | 0.96 ± 0.029
AAGGTGTTTG | 1.05 ± 0.04
GGGGGCGCTG | 1.02 ± 0.028

Sequence | switch fluorescence ratio
TGGGATACTG | 1 ± 0.013
ATTGTTTAGC | 1.01 ± 0.075
GTGTGAGTTC | 1.01 ± 0.017
CAATGAACAC | 1.04 ± 0.031
TTGAGGCAGG | 1.027 ± 0.0065
GGTGTTGGAC | 0.997 ± 0.019
TGATTCCGCT | 1.41 ± 0.025
TGGTGCTAAG | 1.03 ± 0.02
CTCTTAAGGG | 1.01 ± 0.018
TGACGACGCC | 4.6 ± 0.054
ATGGGGAGCG | 0.992 ± 0.031
GTAGTAGCTT | 1.017 ± 0.003
TGGGCAGGGG | 1.3 ± 0.57
AATGGCCTA | 1.03 ± 0.046
TGGTATAGTA | 0.993 ± 0.019
AGAAATGACG | 1 ± 0.037
TTCATTTTTT | 1.02 ± 0.041
TGGTGTAAGA | 1.04 ± 0.025
GAGGTGTTTT | 1.01 ± 0.06
GCGTGATTTG | 0.9959 ± 0.0045
GCTGTGCGGG | 0.95 ± 0.018
TAGACTTATG | 1.04 ± 0.02
TCGGGGTCAG | 0.999 ± 0.02

Sequence | switch fluorescence ratio
CGTGCCGATC | 1.01 ± 0.013
GGTTATGGG | 0.993 ± 0.038
GGGGATGCTG | 0.902 ± 0.21
TTTAATTAT | 0.99 ± 0.034
AAGAAGGAAC | 1 ± 0.02
GGGAATGGAA | 0.995 ± 0.014
GATGTTGTGG | 0.9751 ± 0.0029
GGGTGATGTA | 0.996 ± 0.026
AGGAGAACGG | 0.938 ± 0.011
AGGAGGCGGG | 0.99 ± 0.035
TCTAAGGGA | 1.01 ± 0.018
GTGGGGCGTT | 1 ± 0.035
TTTTACGCT | 1.03 ± 0.06
CACGTAGTAA | 1.13 ± 0.03
TCTCGTACCT | 1.19 ± 0.12
ATGGGGCTTG | 1.05 ± 0.099
GGGTCTTGGC | 1.0357 ± 0.00074
CCATGGCGGT | 1.05 ± 0.033
TTAGGCGCCG | 0.994 ± 0.054
TAGAATATAT | 1.78 ± 1
GAATCTAGTG | 1.019 ± 0.0039
GTATTAATAT | 1.01 ± 0.04
TAGAAACCTT | 1.81 ± 1.1

Sequence | switch fluorescence ratio
GGGGGACCGG | 1.01 ± 0.072
TAGGCCAGTA | 1.024 ± 0.0091
CTTGTGCTTG | 1.0058 ± 0.00065
GGGGCGTCAG | 0.97 ± 0.013
ATGTATACTT | 1.09 ± 0.14
AGAAGATGGT | 0.9827 ± 0.0029
TATGGGGCAG | 0.99 ± 0.0093
GAGTTCTTAG | 0.9587 ± 0.0011
TTTTATGGCA | 1.02 ± 0.021
CTCTGCGGTT | 1.891 ± 0.0039
AGTGAGTCGG | 0.979 ± 0.018
AGTGGGGGAA | 0.985 ± 0.027
TGAATCTTGG | 1.02 ± 0.044
GCGTATTGAG | 1.02 ± 0.022
AGAGGGTGGG | 0.994 ± 0.04
TTAGGAGACT | 0.991 ± 0.029
GGGGGATCAT | 0.9921 ± 0.0016
AGCTGAAG | 0.967 ± 0.013
TTACCGGGAT | 1.02 ± 0.031
